In the DeepSol protein solubility set:

Test: soluble on expression in E. coli; label from the status in PepcDB or PDB records

Sequence	soluble on expression in E. coli
MGDVVEMTSELGFKYSILASGSTGNSFYLETPEKKILVDAGLSGKKITSLLAEIDRDPSDLDAILVTHEHKDHIHGVGVLARKYGMDIYANEKTWQIMDSKNMLGKVDNSQKHIFSRGKLLTFGDIDIESFGVSHDAINPQFYRFMKDGKSFVMLTDTGYVSDRMAGLIENADGYLIESNHDIEILRAGSYPWSTKQRILSDQGHLCNEDGADAMIRTIGNKTKKIYLGHLSKENNIKELAYMTMENQLARADFGVGTDFKIFVTSPDTATPLTDILEHHHHHH	not soluble
MGSDKIHHHHHHMSNHAIPARLQLRHITKRYPGCLANDAVDLTIQPGEIHALLGENGAGKSTLMKIIYGVTQPDAGSIIWQGQAQIMRNPAQARSLGIGMVFQHFSLFETLSVAQNIALAMGAAAGTPRQLEPRIREVSQRYGMAVEPQRLVHSLSIGERQKVEIIRCLMQDIHLLILDEPTSVLTPQEAEELFVTLRHLASEGCSILFISHKLGEVRALCHSATVLRNGKVSGHCIPAECSDLELARLMVGDAEGLTAHYEKVSGGAAFLQVDRLSWHNPDPFGCSLKDLSLEVCSGEIVGIAGVAGNGQDELLALLSGEQTLPHAQAATLRFANTPVGHLRPDARRKRGLAFVPAERLGHGAVPELSLADNALLTAFQQGLVSNGLIQRGKARALADEIIRRFAVKTPDAQAPARSLSGGNLQKFILGREILQNPKLLIAAHPTWGVDVGAAAAIHRALIALRDAGAAILVISEDLDELFQISDRLAALSGGQLSDLIPTEQTSTVQIGGWMAGQFDHSQTQAHTPG	not soluble
MSARVRPFLMFQGVQAEAAMNFYLSLFDDAEILQIQRYGAEGPGPEGSVLKALFRLGDQSVHCIDSHVRHAFDFTPAFSFFVDCESNAQIERLAEALSDGGKALMPLGDYGFSQRFAWLADRFGVSWQLNLA	soluble
MALDLTAYFDRINYRGATDPTLDVLQDLVTVHSRTIPFENLDPLLGVPVDDLSPQALADKLVLRRRGGYCFEHNGLMGYVLAELGYRVRRFAARVVWKLAPDAPLPPQTHTLLGVTFPGSGGCYLVDVGFGGQTPTSPLRLETGAVQPTTHEPYRLEDRVDGFVLQAMVRDTWQTLYEFTTQTRPQIDLKVASWYASTHPASKFVTGLTAAVITDDARWNLSGRDLAVHRAGGTEKIRLADAAAVVDTLSERFGINVADIGERGALETRIDELLARQPGADAP	not soluble
MWRELWRVVEKSDIIVQIVDARNPLLFRSKDLDDYVKEVDPAKQILLLVNKADLLKPEQQASWREYFEKENIKVIFWSAIDEVLDPIDEDAVETSNPSTSTHMFVTNKDELIAKFKELGHVSDEPSAKPVMVGMVGYPNVGKSSTINKLAGGKKVSVSATPGKTRHFQTIHIDSQLCLCDCPGLVMPSFSFGRSEMFLNGILPVDQMRDHFGPTSLLLSRVPVHVIEATYSIMLPEMQSPSAINLLNSLAFMRGFMASSGIPDCSRAARLMFKDVVSGKLIWAAAPPGVEQEEFDRISYPDKKTRDIGRVQMEKLAKLQLLEGDELKGSQFDSQHFVGSIGVAHVRDSKALPQTLGTVIPTAPTENNGKKHYKGKKDKLRRIYNE	not soluble
PNAIVNRSIPEGVDVFEISGPLFFGAASKFKDAMHVVEKAPSIRILRMRKVMSIDATGLNMLKELFNDCRKSGTTLILSGVHTQPLFAMQQYGLADEIGEENIFGNIDDALDRARSLLGLPVQGRPAGF	not soluble
MLPDVQLLKPEVPIGLSRVGATGIKKLVEVQREGKRPIILISTFDVFVDLPAHLKGVNLSRNFEVIDEVLETLTAKPIENIEDLVVEIADHLLKRHEYATKAEARMNSELIMRKRTPKTGQRTQEVVKIFGEATLGRDGSKVIMVGVEVTGITACPCAQELVKASSAERLAKMGFDEETIQKILDAIPVATHNQRGRATLKVQVTDSFKVPIAKLIDVAKSSMSYETYEILKREDELAVVEAAHRNTRFVEDGVRYMAMELLKTFPNAPDDILVFLRQENEESIHQHNVVAERFATFGELRNEIGSPDASGSSAD	soluble
MFNVSALAAATPSIASVSSVASPSEQHGLSTSVGVGVNDTTSRTGDGGAASSASSASAAPQQQSQSALHNKLEAKWDTLLPTDTNLQCSTWPDSIPLLAGYSATPTFSFDPCTYGSYDPSAYFASNGIAGSMYTLPDQFPRSENDMLDNSNTSNGNKSDKDGIKLEDEDEILEDEENDEEDDGTGKRKKRKRRVLFTKAQTYELERRFRSQKYLSAPEREALAMQIRLTPTQVKIWFQNHRYKTKKSHTDKPINAALLTTMPNAFSSQSTAASFPTRAMPIPMLVRDSSARSSDISSTSPYTVAFGSANSGYLPTPSAYLPATSGYFSNGPSAASSYMTNTQWWPS	not soluble
EDLIFGKRISLDLGYREKALFYSLEEHVALIHPEDHDNFIHCWQLFISSANLKDNFSCTYRLKTSDGQWFWYKDLGKIVAVDANNHPVRVTGSYTNITESRANEERAQYYGDAFQQTQ	not soluble
MGSDKIHHHHHHMRNLISETKSLYKLIDFKDVQIFGDAANYTCILFLKIYKNDVFSYIFPKSTDTFTIQSVSNVDTFQEYKLPLPKPDHPWILSENKVSELIRKLSRKGIPLEIISKNIFQSLTTSADGIYFVQVESETRDTAKIRNIKNNLEFAVEKTILRKLLKGKDIRRCSVDWKGSYVVYPYLVKDDKASLITLSEIKDRYPLAYEYFKHYELQLKTREDNKLKDDENWHQYIYRKNLEKFEQKKIVTQVLASKNTFAIDLNGEFYFVGGDNAGGYGIVLNDNNQNMYYFVLALLNSNVLEFYLKNISTPFRGGYFSYGKRFIDKLPLLIPKDSRFDSVSSLSKEQMNISKKMRNFPNTDERDLLEREYDKRCQELNQMIYEIYGLNKLEITLLDDRLCQ	not soluble
RGKVFLEAQEKYEVNVIYLVSHALVETGNGKSELAKGIKDGKKRYYNFFGIGAFDSSAVRSGKSYAEKEQWTSPDKAIIGGAKFIRNEYFENNQLNLYQMRWNPENPAQHQYASDIRWADKIAKLMDKSYKQFGIKKDDIRQTYYK	not soluble
MKFEYEYMETPEDLLMSLSAGFAMAMRNIATVYSYKGYLSYYTPAMSDGEELTMFVTLTKGELAPGLIDFDSENKRIEHVKKATNPEAYHFLVIRPQISTVLDKAIYDFEKSRNQP	not soluble
MTKENTKSIADDGPYSGSFYGLAEDNANHGIFSSILKRKKRQQDKLSEDVKKRCGRVESYKSCCDRLHQALMYMLVENAVTSKQLVTGARTEPHYRYAGQYLKTYEIIANQGRDKTKYESLEPAIKALLTLDSEHEKKVRKQLENLKPLTKFIGEDYWEYVRLKKVYAESVDGYDEAVVLQNKGKTEDAETAATNAQTWMNDCRTKLMDFITVSISQQKAKHADCVLKFRDESVSYHKIMADSITTPEPAEGKSVVKTLKQ	not soluble
GPGSMDVVATPLWSSPPCGSPMAGTVSSGNPLFHVGRSYYRSAAKAYNMTRYVVESLKLDETVLATSMAYWHTFVDRLELRKFDEIVLSASCVFLASKVEHYKVRLNRVIALVFEISGEGDEMEGWRRMLLEMELLVCHTLGFNFQIIHPMKRIVELVPEDHTQVLECAHRLFLLSFMTPLCVRVPADEVAEALVYLAADGAGQLEPYAGKFRCDAVERREGIINVMIDALAVMRKNTSLPKVDDMIVARRKRMREQESFRPSVAHSSGGTGSLDVTPSAFLVE	soluble
MPTPYHLNMAAPLRIQLTPEEDRLLLELSLDPRTHKKTRLWAMMVRLAAEGWTAPKIAQHFHKDRTTVYLVLRRFLREGLQGLAYRKPPGAPRKFTPEMAAFVEERLAEDRVWTAPQLAAALAERFGVRLAPKVVARHLRAMGYVWRRTRYVPLGKPTEEEVKAFAEEEEEAKRGRRRG	soluble
MFGCITMSENNQCVIVGIAGASASGKSLIASTIYNELRAKVGDHQIGVITEDCYYKDQSHLSMEERVKTNYDHPSALDHDLLCQHLQMLARGEAVEVPEYSYTEHTRTEQTTTMTPKKVIILEGILLLTDPRLRDLMHATVFMDTPLDICLLRRVKRDVQERGRTMESVLKQYQETVRPMFMQFIEPSKQYADIIVPRGGKNRIAIDVLKAHIAKLLKS	not soluble
MANVNTFSIVKNVKLDLGIEDDNQDQLLEMLLNRITDHFKANYGVLEIDNAFSFVLEDCLIARFNRRGSERAKTEEVEGHKTTYYDHLNEFEPYDAMIMAKLNLIKDKSRKGGLYFL	not soluble
MAHHHHHHMSGKLEDIGELVLLIGDFHSPMRNLGLPDCFKDLLKTDKIKHVLCTGNVGCRENLELLKNIADSVHITKGDMDDEYDFPEDISLTIGDFKMSLIHGHQIIPWGDTNALLQWQKKHDSDIVISGHTHKNSIVRYEGKYFINPGSATGAFQPWLSQPTPSFILMAVAKSSIVVYVYEEKNGKTNVEMSELQK	not soluble
MGSDKIHHHHHHMKTTSPSSYDEMLNADGSVRSAYAGYCKWYDEQPPDLLRRKGSEAEAFFRRTGITFNVYGNEDAEERLIPFDMVPRIITAQQWRKLSRGIEQRVRALNAFLHDLYHRQEIVRSGRLPVRLLKGNEAFLPEMVGFTPPGGVYTHIVGIDLVRTGEDDFMVLEDNARTPSGVSYMLENRETMMAMFPELFTRVRVREVSDYPRRLARSLAACAPPACDGKKPVVAVLTPGIYNSAYFEHAFLADQMGAELVEGSDLRVENGRIAMRTTRGYQPIDVLYRRVDDEYLDPLSFNPGSVLGVSGIMDVYRSGGITIANAPGTGIADDKAIYSFMPEIVEFYTGEKPILQNVPTWRCAEPDALAYVLDNLAELVVKEVHGSGGYGMLIGPTSSRKELAAFEAKLRARPENYIAQPTLSLSTVPILTKAGLAPRHVDLRPFVLVSPNGIDITPGGLTRVALKKGSLVVNSSQGGGTKDSWVLDD	not soluble
MGSDKIHHHHHHMKMETGKLLMELSNLDGPSGYETNVVSYIKSVIEPFVDEAKTTRHGSLIGYKKGKGIGKLAFFAHVDEIGFVVSKVEGQFARLEPVGGVDPKVVYASKVRIYTKNGIERGVIGMLAPHLQDSESRKKVLTYDEIFVDLSLCERDVRVGDIAVIDQTAFETNGKVVGKALDNRASCGVLVKVLEFLKRYDHPWDVYVVFSVQEETGCLGALTGAYEINPDAAIVMDVTFASEPPFSDHIELGKGPVIGLGPVVDRNLVQKIIEIAKKHNVSLQEEAVGGRSGTETDFVQLVRNGVRTSLISIPLKYMHTPVEMVDPRDVEELARLLSLVAVELEV	not soluble
MTDLIHRPRRLRKSAALRAMFEETTLSLNDLVLPIFVEEELDDYKAIDAMPGVMRIPEKQLAREIERIANAGIRSVMTFGISHHTDDTGSDTWKEDGLVARMSRICKQTVPEMIVMSDTCFCEYTSHGHCGVLCEHGVDNDATLANLGKQAVIAAAAGADFIAPSAAMDGQVQAIRQALDAAGFTDTAIMSYSTKFASSFYGPFREAAGTALKGDRKTYQMNPMNRREAIRESLLDEAQGADCLMVKPAGAYLDVLREIRERTELPLGAYQVSGEYAMIKFAAMAGAIDEEKVVLESLGSIKRAGADLIFSYFALDLAEKNILR	not soluble
MMATQTLSIDSYQDGQQMQVVTELKTEQDPNCSDPDAEGVSPPPIESQTPMDADKQAIYRHPLFPLLALLFEKCEQSTQGSEGTTSASFDVDIENFVRKQEKDGKPFFCEDPETDNLMVKAIQVLRIHLLELEKVNELCKDFCSRYIACLKTKMNSETLLSGEPGSPYSPVQSQQIQSAITGTLSPQGIVVPASALQQGNVTMATVAGGTVYQPVTVVTPQGQVVTQALSPGTIRIQNSQLQLQLNQDLSILHQEDGSSKNKRGVLPKHATNVMRSWLFQHIGHPYPTEDEKKQIAAQTNLTLLQVNNWFINARRRILQPMLDSSCSETPKTKKKPAQNRPVQRFWPDSLASGVAQATPSELAMSEGAVVTITTPVNMNVDSLQSLSSDGATLAVQQVMMAGQSEDESVDSTEDEGGALAPTHISGLVLENSDSLQ	not soluble
MARVEGELFKIARASLEAEPIAWRYRYVKKGVMDSQGELWVGDWKYVPKKEDCNDRPNYEIQALFTAPPVPVTSEELVKAVHFYEQLKRENPPASGNQINGLTMSVKRPAN	not soluble
